Assay: soluble on expression in E. coli; label from the status in PepcDB or PDB records

Sequence | soluble on expression in E. coli
SLLAMPSAISVAVLPDSPHAREMATKAHNSGHEVLIHLPMAPLSKQPLEKNTLRPEMSSDEIERIIRSAVNNVPYAVGINNHMGSKMTSNLFGMQKVMQALERYNLYFLDSVTIGNTQAMRAAQGTGVKVIKRKVFLDDSQNEADIRVQFNRAIDLARRNGSTIAIGHPHPSTVRVLQQMVYNLPPDITLVKASSLLNEPQVDTSTPPKNAVPDAPRNPFRGVKLCKPKKPIEPVYANRFFEVLSESISQSTLIVYFQHQWQGWGKQPEAAKFNASAN | soluble
MGSDKIHHHHHHMTKESILTFSQSKAEPAWLQEKRLAAFDKIDDLELPRIERVKFQRWNLGDGTITESPISANVPDFTSFGENPKLVQLGTQTVLESLPAKLVEQGVVFTDFHSALEEIPQVIEKYFATALKFDEDKLSAYHTAYFNSGSVLYVPDNVEIDLPLEGIFLQDSTSNVPLNKHVLIIAGRHAKVNYLERFETIGDSDVKATANIAVEVLAQAGSQVKFAAIDRLGNNITTYISRRGRLDNDASIDWALGVMNEGNVIADFDSDLIGNGSHAELKVVAASSGRQIQGIDTRVTNYGNNSIGHILQHGVILERGTLTFNGIGHIIKGAKGADAQQESRVLMLSDKARSDANPILLIDENEVTAGHAASIGQVDPEDMYYLMSRGIDKETAERLVIRGFLGTVITEIPVKAVRDEMIAVLDEKLDKR | not soluble
MQAVSVDETKNTVVLRAEHKNEEGRKSVDKFEVKTRNPETIKSVERKLMEKGVQRMDRHPSDGIPLRRPPSKSGHGGKYTWEGPDRMEDYEMQPDPPAMDEGDPNYDEEQVKKSGDDVAVELVKGEVEVAKEAPAGVARVEVDPRLVGR | soluble
MAHHHHHHVGTGSNDDDDKSPDPTQDVREPPALKYGIVLDAGSSHTSMFVYKWPADKENDTGIVGQHSSCDVQGGGISSYANDPSKAGQSLVRCLEQALRDVPRDRHASTPLYLGATAGMRLLNLTSPEATARVLEAVTQTLTQYPFDFRGARILSGQDEGVFGWVTANYLLENFIKYGWVGRWIRPRKGTLGAMDLGGASTQITFETTSPSEDPGNEVHLRLYGQHYRVYTHSFLCYGRDQILLRLLASALQIHRFHPCWPKGYSTQVLLQEVYQSPCTMGQRPRAFNGSAIVSLSGTSNATLCRDLVSRLFNISSCPFSQCSFNGVFQPPVAGNFIAFSAFYYTVDFLTTVMGLPVGTLKQLEEATEITCNQTWTELQARVPGQKTRLADYCAVAMFIHQLLSRGYHFDERSFREVVFQKKAADTAVGWALGYMLNLTNLIPADLPGLRKGTHF | soluble
MGSDKIHHHHHHMYCMEKCVENYFVLNEEIKDKKTFDGNFVENGKSLYEVIRIIDGIPLFLGNHIKRLENSFKIEKLSFPVSLDNIKQNIFKLIEANKCEVGNVKLVFNYFENKCDFYGYFVQHKYPDEYDYINGVKTILYHGERSNPNAKVINLNFRKNVDKKIKEKGVFEAILVDRNGNITEGSKSNIFMVKSNTVYTAPVEDVLPGITREIIVEICKQCGYTVVDEKINYKKIDQFEGLFISGTSPKVLPICQVDDIKFNSQGTEMIRNIRKAYDDYISNYIKNFDSRS | not soluble
MGSDKIHHHHHHMKISFPHMGYSYIAFKWLVNHLGHECIVPPEPSKKTLDLGVRYSPEFACIPFKILMGTYLEVAEKGAEIILTSGGMGPCRAGYYWVMHQYILDEIGKKVKVIAFEPPLCDLRDFWRKLHRLRVSGGLSVKAFIQVLKVAWEKIKAIDDMEMQSHSIRPYEEKRGDTTRALWKALEFVDEANGEDEVNEARQEGLKVLQGVRRDENRDPLKIGIIGEIYVVLEPSANHYLQIMLGEMGVYTDRSIYLSSYTRKNTIVNLEGDIFQVARPYLNEAPIGGHGVNSIGETILYARHGFDGVVQLAPFACIPEIVAKSIIPAVSRDFNIPVLTLFIDEQTGKAGVQTRLEAFVDLLEKRREHKRQRERWAI | not soluble
MEMTSAFTLNVRLDNIAVITIDVPGEKMNTLKAEFASQVRAIIKQLRENKELRGVVFVSAKPDNFIAGADINMIGNCKTAQEAEALARQGQQLMAEIHALPIQVIAAIHGACLGGGLELALACHGRVCTDDPKTVLGLPEVQLGLLPGSGGTQRLPRLIGVSTALEMILTGKQLRAKQALKLGLVDDVVPHSILLEAAVELAKKERPSSRPLPVRERILAGPLGRALLFKMVGKKTEHKTQGNYPATERILEVVETGLAQGTSSGYDAEARAFGELAMTPQSQALRSIFFASTDVKKDPGSDAPPAPLNSVGILGGGLMGGGIAYVTACKAGIPVRIKDINPQGINHALKYSWDQLEGKVRRRHLKASERDKQLALISGTTDYRGFAHRDLIIEAVFENLELKQQMVAEVEQNCAAHTIFASNTSSLPIGDIAAHATRPEQVIGLHFFSPVEKMPLVEIIPHAGTSAQTIATTVKLAKKQGKTPIVVRDKAGFYVNRILAPYINEAIRMLTQGERVEHIDAALVKFGFPVGPIQLLDEVGIDTGTKIIPVLEAAYGERFSAPANVVSSILNDDRKGRKNGRGFYLYGQKGRKSKKQVDPAIYPLIGTQGQGRISAPQVAERCVMLMLNEAVRCVDEQVIRSVRDGDIGAVFGIGFPPFLGGPFRYIDSLGAGEVVAIMQRLATQYGSRFTPCERLVEMGARGESFWKTTATDLQ | soluble
MGSDKIHHHHHHMEPQWDDMKVFLAVARESSLSGAGRVLKMDPATVGRRVARFEAALKTSLFVKSPQGYALSAAGDRLLGHAEAAELAMRAGEEALTGPSDTLSGQIRIGAPDGCANYILPQVCAAISKDNPDLDIQVVALPRVINLSRREADMAVTVSAPTAGKLLVQKITDYHLHLAATRHYLRDNHPIEKLEHLRDHRMIGYIPDMIFDRELDYLNDLGIERVSLASNSVSVQIKMLAEGSALGVVHDFSLPSHRTLRKVLKEEFSLTRSFYLVRHQGDQRSDRLNRFAEALSAGIRAEVERLEGLT | not soluble
MAQVAIFKEIFDQVRKDLNCELFYSELKRHNVSHYIYYLATDNIHIVLENDNTVLIKGLKKVVNVKFSRNTHLIETSYDRLKSREITFQQYRENLAKAGVFRWITNIHEHKRYYYTFDNSLLFTESIQNTTQIFPR | not soluble
GFIDSHVHIESSMVSPKEFARAVISRGTTTIIVDPHEIANVCGMDGIKYMMEETKNMPLDVFFMLSSCVPATSFETSGAVLKAEDLKELIDSDRVLGLGEMMNYPGVLSREEEVLNKLKLAGSYNKIVDGHAPSVRGNELNAYNLAGIKTDHECSSIEEMNEKIRNGMYIAIREGSAAKNLDILIKGVNAKNERRIMFCADDRHPDDILKSGHMDNCVRRAIYNGIENTAAIRMASINAAECYKLERVGAIAPSYKADLVVLEDLKDVKVNMVIKSGEVVFKDNKHLKDMGSKSDI | not soluble
QSSSSAIEATIEGNSQTTISQTSHFIQSYIKKLETTSTGLTQQTDVLAYAENPSQDKVEGIRDLFLTILKSDKDLKTVVLVTKSGQVISTDDSVQMKTSSDMMAEDWYQKAIHQGAMPVLTPARKSDSQWVISVTQELVDAKGANLGVLRLDISYETLEAYLNQLQLGQQGFAFIINENHEFVYHPQHTVYSSSSKMEAMKPYIDTGQGYTPGHKSYVSQEKIAGTDWTVLGVSSLEKLDQVRSQL | not soluble
MSLHKEYIQNYLNLTRNTGNLMLFAGDQKIEHLNEDFYGKDISKDDADPEHLFKIAENSKIGGFAVQFGLLSRYGRDHKDINYIVKLNSKTNLVDTNQKDPLSRALLDINDILEFKKNSGINIVGVGYTIYLGSEYESEMLSEASKIIYEAHKGGLVVILWIYPRGKAVKDEKDSELISGATGVAACLGADFVKVNYPKSENPAESFKEAVMAAGRTKVVCAGGSSTDIESFLKQLYEQIHISGASGNATGRNIHQKSLSDAVSMCNAIYAITIDGKTVSEALNIYNERKSEGHHHHHH | not soluble
MKKIYKVLYPVGFQIFEVQDDYVVALPFVEEKPLENLVNEQSQFFNFSEQKWEEAVTQDYTKKLNLLENLANGLEVSNSELKQANEKLTAKAESLAQINSKTMLTSLQNTREIDAIKEQIGGAK | not soluble
KLEYRISYDDEKEIKAIVFIIGGYGANANIYFLDSYRNYIAKNFDVVAVHVFYHCFCQRRSDVEKYSAYKYFQEEDIENIKNLLNQFHFSYGEINNDNALFLANSLVKHVENLKMQNKLDHNFKLNFTSTFIPPNGDYQNYGIMAAIDHINALKDLVKRFPKFADLPK | not soluble

— the DeepSol protein solubility set
